# T1: soluble CD22-Fc (R&D Systems) (UniProt P20273 20-687)
# T1 construct: Bought reagent used to stain CD22 CARs; not shown: Fc part; detected with anti-human IgG Fc-gamma secondary
# T1 sequence (looked up): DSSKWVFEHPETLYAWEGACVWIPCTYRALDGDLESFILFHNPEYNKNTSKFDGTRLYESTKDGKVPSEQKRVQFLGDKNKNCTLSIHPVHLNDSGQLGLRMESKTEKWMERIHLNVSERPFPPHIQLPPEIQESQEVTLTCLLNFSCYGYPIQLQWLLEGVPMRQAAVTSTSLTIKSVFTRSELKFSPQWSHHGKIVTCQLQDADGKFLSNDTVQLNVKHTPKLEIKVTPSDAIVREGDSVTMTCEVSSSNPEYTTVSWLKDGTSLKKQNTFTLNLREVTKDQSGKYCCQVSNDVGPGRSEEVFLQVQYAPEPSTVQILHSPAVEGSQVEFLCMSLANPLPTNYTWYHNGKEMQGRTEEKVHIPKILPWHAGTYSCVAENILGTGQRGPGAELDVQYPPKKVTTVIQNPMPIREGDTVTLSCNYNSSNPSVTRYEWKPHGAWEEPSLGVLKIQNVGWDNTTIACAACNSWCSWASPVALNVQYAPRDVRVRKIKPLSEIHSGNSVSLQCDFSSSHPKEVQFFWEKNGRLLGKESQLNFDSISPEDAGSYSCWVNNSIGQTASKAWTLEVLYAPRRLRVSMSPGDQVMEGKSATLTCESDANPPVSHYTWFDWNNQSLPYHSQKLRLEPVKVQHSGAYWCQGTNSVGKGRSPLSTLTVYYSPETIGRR
# B1: tandem CD19/CD22 CAR construct 174 (other)
# chain: EIVMTQSPATLSLSPGERATLSCRASQDISKYLNWYQQKPGQAPRLLIYHTSRLHSGIPARFSGSGSGTDYTLTISSLQPEDFAVYFCQQGNTLPYTFGQGTKLEIKGGGGSGGGGSGGGGSQVQLQESGPGLVKPSETLSLTCTVSGVSLPDYGVSWIRQPPGKGLEWIGVIWGSETTYYQSSLKSRVTISKDNSKNQVSLKLSSVTAADTAVYYCAKHYYYGGSYAMDYWGQGTLVTVSSGGGGSEVQLQQSGPGLVKPSQTLSLTCAISGDSMLSNSDTWNWIRQSPSRGLEWLGRTYHRSTWYDDYASSVRGRVSINVDTSKNQYSLQLNAVTPEDTGVYYCARVRLQDGNSWSDAFDVWGQGTMVTVSSGGGGSQSALTQPASASGSPGQSVTISCTGTSSDVGGYNYVSWYQQHPGKAPKLMIYDVSNRPSGVSNRFSGSKSGNTASLTISGLQAEDEADYYCSSYTSSSTLYVFGTGTQLTVLTTTPAPRPPTPAPTIASQPLSLRPEACRPAAGGAVHTRGLDFACDIYIWAPLAGTCGVLLLSLVITLYCKRGRKKLLYIFKQPFMRPVQTTQEEDGCSCRFPEEEEGGCELRVKFSRSADAPAYQQGQNQLYNELNLGRREEYDVLDKRRGRDPEMGGKPRRKNPQEGLYNELQKDKMAEAYSEIGMKGERRRGKGHDGLYQGLSTATKDTYDALHMQALPPR
# notes: Distal anti-CD19 scFv, GGGGS, proximal anti-CD22 scFv H/L with short linker; leader 1-21 left out; also called CG#c174; c174
# B2: control anti-CD22 CAR CAR22-65 (other)
# chain: EVQLQQSGPGLVKPSQTLSLTCAISGDSMLSNSDTWNWIRQSPSRGLEWLGRTYHRSTWYDDYASSVRGRVSINVDTSKNQYSLQLNAVTPEDTGVYYCARVRLQDGNSWSDAFDVWGQGTMVTVSSGGGGSGGGGSGGGGSQSALTQPASASGSPGQSVTISCTGTSSDVGGYNYVSWYQQHPGKAPKLMIYDVSNRPSGVSNRFSGSKSGNTASLTISGLQAEDEADYYCSSYTSSSTLYVFGTGTQLTVL
# notes: also called CAR22-65 Long; not shown: hinge, transmembrane, 4-1BB and CD3zeta parts of the CAR
# B3: tandem CD19/CD22 CAR construct 171 (other)
# chain: EIVMTQSPATLSLSPGERATLSCRASQDISKYLNWYQQKPGQAPRLLIYHTSRLHSGIPARFSGSGSGTDYTLTISSLQPEDFAVYFCQQGNTLPYTFGQGTKLEIKGGGGSGGGGSGGGGSQVQLQESGPGLVKPSETLSLTCTVSGVSLPDYGVSWIRQPPGKGLEWIGVIWGSETTYYQSSLKSRVTISKDNSKNQVSLKLSSVTAADTAVYYCAKHYYYGGSYAMDYWGQGTLVTVSSLAEAAAKEVQLQQSGPGLVKPSQTLSLTCAISGDSMLSNSDTWNWIRQSPSRGLEWLGRTYHRSTWYDDYASSVRGRVSINVDTSKNQYSLQLNAVTPEDTGVYYCARVRLQDGNSWSDAFDVWGQGTMVTVSSGGGGSGGGGSGGGGSQSALTQPASASGSPGQSVTISCTGTSSDVGGYNYVSWYQQHPGKAPKLMIYDVSNRPSGVSNRFSGSKSGNTASLTISGLQAEDEADYYCSSYTSSSTLYVFGTGTQLTVLTTTPAPRPPTPAPTIASQPLSLRPEACRPAAGGAVHTRGLDFACDIYIWAPLAGTCGVLLLSLVITLYCKRGRKKLLYIFKQPFMRPVQTTQEEDGCSCRFPEEEEGGCELRVKFSRSADAPAYQQGQNQLYNELNLGRREEYDVLDKRRGRDPEMGGKPRRKNPQEGLYNELQKDKMAEAYSEIGMKGERRRGKGHDGLYQGLSTATKDTYDALHMQALPPR
# notes: Distal anti-CD19 scFv, LAEAAAK, proximal anti-CD22 scFv H/L; also called CG#c171; c171
# B4: tandem CD22/CD19 CAR construct 181 (other)
# chain: EVQLQQSGPGLVKPSQTLSLTCAISGDSMLSNSDTWNWIRQSPSRGLEWLGRTYHRSTWYDDYASSVRGRVSINVDTSKNQYSLQLNAVTPEDTGVYYCARVRLQDGNSWSDAFDVWGQGTMVTVSSGGGGSGGGGSGGGGSQSALTQPASASGSPGQSVTISCTGTSSDVGGYNYVSWYQQHPGKAPKLMIYDVSNRPSGVSNRFSGSKSGNTASLTISGLQAEDEADYYCSSYTSSSTLYVFGTGTQLTVLLAEAAAKEIVMTQSPATLSLSPGERATLSCRASQDISKYLNWYQQKPGQAPRLLIYHTSRLHSGIPARFSGSGSGTDYTLTISSLQPEDFAVYFCQQGNTLPYTFGQGTKLEIKGGGGSGGGGSGGGGSQVQLQESGPGLVKPSETLSLTCTVSGVSLPDYGVSWIRQPPGKGLEWIGVIWGSETTYYQSSLKSRVTISKDNSKNQVSLKLSSVTAADTAVYYCAKHYYYGGSYAMDYWGQGTLVTVSSTTTPAPRPPTPAPTIASQPLSLRPEACRPAAGGAVHTRGLDFACDIYIWAPLAGTCGVLLLSLVITLYCKRGRKKLLYIFKQPFMRPVQTTQEEDGCSCRFPEEEEGGCELRVKFSRSADAPAYQQGQNQLYNELNLGRREEYDVLDKRRGRDPEMGGKPRRKNPQEGLYNELQKDKMAEAYSEIGMKGERRRGKGHDGLYQGLSTATKDTYDALHMQALPPR
# notes: Distal anti-CD22 scFv H/L, LAEAAAK, proximal anti-CD19 scFv; leader 1-21 left out; also called CG#c181; c181
# B5: tandem CD19/CD22 CAR construct 173 (other)
# chain: EIVMTQSPATLSLSPGERATLSCRASQDISKYLNWYQQKPGQAPRLLIYHTSRLHSGIPARFSGSGSGTDYTLTISSLQPEDFAVYFCQQGNTLPYTFGQGTKLEIKGGGGSGGGGSGGGGSQVQLQESGPGLVKPSETLSLTCTVSGVSLPDYGVSWIRQPPGKGLEWIGVIWGSETTYYQSSLKSRVTISKDNSKNQVSLKLSSVTAADTAVYYCAKHYYYGGSYAMDYWGQGTLVTVSSLAEAAAKEVQLQQSGPGLVKPSQTLSLTCAISGDSMLSNSDTWNWIRQSPSRGLEWLGRTYHRSTWYDDYASSVRGRVSINVDTSKNQYSLQLNAVTPEDTGVYYCARVRLQDGNSWSDAFDVWGQGTMVTVSSGGGGSQSALTQPASASGSPGQSVTISCTGTSSDVGGYNYVSWYQQHPGKAPKLMIYDVSNRPSGVSNRFSGSKSGNTASLTISGLQAEDEADYYCSSYTSSSTLYVFGTGTQLTVLTTTPAPRPPTPAPTIASQPLSLRPEACRPAAGGAVHTRGLDFACDIYIWAPLAGTCGVLLLSLVITLYCKRGRKKLLYIFKQPFMRPVQTTQEEDGCSCRFPEEEEGGCELRVKFSRSADAPAYQQGQNQLYNELNLGRREEYDVLDKRRGRDPEMGGKPRRKNPQEGLYNELQKDKMAEAYSEIGMKGERRRGKGHDGLYQGLSTATKDTYDALHMQALPPR
# notes: Distal anti-CD19 scFv, LAEAAAK, proximal anti-CD22 scFv H/L with short linker; leader 1-21 left out; also called CG#c173; c173
# B6: tandem CD19/CD22 CAR construct 172 (other)
# chain: EIVMTQSPATLSLSPGERATLSCRASQDISKYLNWYQQKPGQAPRLLIYHTSRLHSGIPARFSGSGSGTDYTLTISSLQPEDFAVYFCQQGNTLPYTFGQGTKLEIKGGGGSGGGGSGGGGSQVQLQESGPGLVKPSETLSLTCTVSGVSLPDYGVSWIRQPPGKGLEWIGVIWGSETTYYQSSLKSRVTISKDNSKNQVSLKLSSVTAADTAVYYCAKHYYYGGSYAMDYWGQGTLVTVSSGGGGSEVQLQQSGPGLVKPSQTLSLTCAISGDSMLSNSDTWNWIRQSPSRGLEWLGRTYHRSTWYDDYASSVRGRVSINVDTSKNQYSLQLNAVTPEDTGVYYCARVRLQDGNSWSDAFDVWGQGTMVTVSSGGGGSGGGGSGGGGSQSALTQPASASGSPGQSVTISCTGTSSDVGGYNYVSWYQQHPGKAPKLMIYDVSNRPSGVSNRFSGSKSGNTASLTISGLQAEDEADYYCSSYTSSSTLYVFGTGTQLTVLTTTPAPRPPTPAPTIASQPLSLRPEACRPAAGGAVHTRGLDFACDIYIWAPLAGTCGVLLLSLVITLYCKRGRKKLLYIFKQPFMRPVQTTQEEDGCSCRFPEEEEGGCELRVKFSRSADAPAYQQGQNQLYNELNLGRREEYDVLDKRRGRDPEMGGKPRRKNPQEGLYNELQKDKMAEAYSEIGMKGERRRGKGHDGLYQGLSTATKDTYDALHMQALPPR
# notes: Distal anti-CD19 scFv, GGGGS, proximal anti-CD22 scFv H/L; leader 1-21 left out; end of range counted without it; also called CG#c172; c172
# Target: T1, soluble CD22-Fc (R&D Systems)
# Test: FACS surface staining of transduced JNL cells with CD22-Fc
row,Binder,binding result
1,B1,binds
2,B2,binds
3,B3,binds
4,B4,binds
5,B5,binds
6,B6,binds

# Source: patent publication USRE49847 (dated 2024)
